Experimental data from the Immune Epitope Database (IEDB).

Target: HLA-A*02:01
Assay: IEDB peptide-MHC binding, purified MHC/competitive/radioactivity; ≥ and ≤ were set here for values at or beyond the usual limits of such assays
Conditions: source organism: Toxoplasma gondii GT1

| Sequence | IC50 [nM] |
| --- | --- |
| ALAALAPSLEV | 1000 |
| ALDINLPNV | 500 |
| FVLELEPEWTV | 10 |
| GLAETEVPV | 500 |
| HLMDEAVEV | 500 |
| LLSDLSVRL | 500 |
| MLYAGAPTTV | 100 |
| VMSELEFYL | 100 |
| YLFKEGVIVV | 500 |
| YLSPIASPLL | 100 |
